Test system: Escherichia coli TOP10
Experiment: shrunken log2 fold change of peptide-encoding DNA abundance (4.5 h post-induction vs induction); higher = less antimicrobial activity (less host growth inhibition)
Settings: time post-induction: 4.5 h; library: site-saturation at positions 5, 18, 19, 20
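Also: peptides expressed intracellularly from a pBAD plasmid library in pooled LB shake-flask culture, induced with 0.3% L-arabinose, DNA abundance read by NGS, three biological replicates, DESeq2 with apeglm shrinkage.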

Sequence	shrunken log2 fold change
RRIRLRPPRLPRPRPRPWAPPRP	1.18
RRIRLRPPRLPRPRPRPWCKPRP	-0.213
RRIRLRPPRLPRPRPRPWDTPRP	0.0949
RRIRLRPPRLPRPRPRPWELPRP	-0.00192
RRIRLRPPRLPRPRPRPWFSPRP	-0.225
RRIRLRPPRLPRPRPRPWGRPRP	-0.0734
RRIRLRPPRLPRPRPRPWHHPRP	-0.0279
RRIRLRPPRLPRPRPRPWHNPRP	-0.00136
RRIRLRPPRLPRPRPRPWIAPRP	0.0439
RRIRLRPPRLPRPRPRPWLKPRP	0.0827
RRIRLRPPRLPRPRPRPWLQPRP	0.0325
RRIRLRPPRLPRPRPRPWNEPRP	-0.11
RRIRLRPPRLPRPRPRPWNRPRP	-0.0226
RRIRLRPPRLPRPRPRPWNVPRP	-0.0513
RRIRLRPPRLPRPRPRPWQHPRP	-0.319
RRIRLRPPRLPRPRPRPWTQPRP	0.13
RRIRLRPPRLPRPRPRPWVHPRP	-0.3
RRIRLRPPRLPRPRPRPWWQPRP	-0.179
RRIRLRPPRLPRPRPRPWYCPRP	-0.766
RRIRLRPPRLPRPRPRPWYKPRP	-0.0396
RRIRLRPPRLPRPRPRPYCDPRP	-0.328
RRIRLRPPRLPRPRPRPYCHPRP	-0.542
RRIRLRPPRLPRPRPRPYDAPRP	-0.211
RRIRLRPPRLPRPRPRPYDIPRP	0.00601
RRIRLRPPRLPRPRPRPYIKPRP	-0.882

Sequence	shrunken log2 fold change
RRIRLRPPRLPRPRPRPYKCPRP	-0.0222
RRIRLRPPRLPRPRPRPYKDPRP	-0.269
RRIRLRPPRLPRPRPRPYKGPRP	-0.027
RRIRLRPPRLPRPRPRPYKMPRP	-0.851
RRIRLRPPRLPRPRPRPYLLPRP	-0.248
RRIRLRPPRLPRPRPRPYLVPRP	-1.06
RRIRLRPPRLPRPRPRPYMLPRP	-1.2
RRIRLRPPRLPRPRPRPYMYPRP	-0.759
RRIRLRPPRLPRPRPRPYNKPRP	1.41
RRIRLRPPRLPRPRPRPYQIPRP	-0.489
RRIRLRPPRLPRPRPRPYQTPRP	0.0345
RRIRLRPPRLPRPRPRPYTYPRP	-0.235
RRIRLRPPRLPRPRPRPYYCPRP	-0.223
RRIRLRPPRLPRPRPRPYYMPRP	-0.671
RRIRMRPPRLPRPRPRPAACPRP	0.763
RRIRMRPPRLPRPRPRPACIPRP	0.112
RRIRMRPPRLPRPRPRPACQPRP	0.141
RRIRMRPPRLPRPRPRPACRPRP	0.633
RRIRMRPPRLPRPRPRPADDPRP	-0.00235
RRIRMRPPRLPRPRPRPADKPRP	0.318
RRIRMRPPRLPRPRPRPAEYPRP	0.0354
RRIRMRPPRLPRPRPRPAFCPRP	0.455
RRIRMRPPRLPRPRPRPAFHPRP	0.319
RRIRMRPPRLPRPRPRPAFWPRP	0.963
RRIRMRPPRLPRPRPRPAGYPRP	0.572

Sequence	shrunken log2 fold change
RRIRMRPPRLPRPRPRPAICPRP	0.171
RRIRMRPPRLPRPRPRPAKAPRP	0.0749
RRIRMRPPRLPRPRPRPAKMPRP	0.134
RRIRMRPPRLPRPRPRPAKPPRP	0.453
RRIRMRPPRLPRPRPRPALLPRP	0.727
RRIRMRPPRLPRPRPRPALMPRP	0.114
RRIRMRPPRLPRPRPRPAMCPRP	0.124
RRIRMRPPRLPRPRPRPAMNPRP	-0.00221
RRIRMRPPRLPRPRPRPAMRPRP	1.14
RRIRMRPPRLPRPRPRPANNPRP	-0.264
RRIRMRPPRLPRPRPRPANTPRP	-0.0215
RRIRMRPPRLPRPRPRPANVPRP	-0.0273
RRIRMRPPRLPRPRPRPAQDPRP	0.376
RRIRMRPPRLPRPRPRPAQIPRP	-0.0435
RRIRMRPPRLPRPRPRPAQLPRP	0.101
RRIRMRPPRLPRPRPRPAQWPRP	0.533
RRIRMRPPRLPRPRPRPARLPRP	0.201
RRIRMRPPRLPRPRPRPARQPRP	0.825
RRIRMRPPRLPRPRPRPATDPRP	0.843
RRIRMRPPRLPRPRPRPATFPRP	0.376
RRIRMRPPRLPRPRPRPAWKPRP	0.14
RRIRMRPPRLPRPRPRPAWYPRP	0.177
RRIRMRPPRLPRPRPRPCASPRP	0.0954
RRIRMRPPRLPRPRPRPCAWPRP	0.513
RRIRMRPPRLPRPRPRPCCHPRP	0.0146

Sequence	shrunken log2 fold change
RRIRMRPPRLPRPRPRPCCSPRP	0.0205
RRIRMRPPRLPRPRPRPCDEPRP	0.877
RRIRMRPPRLPRPRPRPCEPPRP	0.234
RRIRMRPPRLPRPRPRPCFTPRP	-0.123
RRIRMRPPRLPRPRPRPCGAPRP	1.15
RRIRMRPPRLPRPRPRPCGKPRP	0.0716
RRIRMRPPRLPRPRPRPCIFPRP	0.0107
RRIRMRPPRLPRPRPRPCIIPRP	-0.798
RRIRMRPPRLPRPRPRPCKKPRP	0.106
RRIRMRPPRLPRPRPRPCKPPRP	-0.173
RRIRMRPPRLPRPRPRPCKRPRP	0.00656
RRIRMRPPRLPRPRPRPCLFPRP	-0.155
RRIRMRPPRLPRPRPRPCLIPRP	-0.0342
RRIRMRPPRLPRPRPRPCLPPRP	0.154
RRIRMRPPRLPRPRPRPCMTPRP	1.65
RRIRMRPPRLPRPRPRPCMVPRP	-0.417
RRIRMRPPRLPRPRPRPCNIPRP	0.0653
RRIRMRPPRLPRPRPRPCPHPRP	0.0961
RRIRMRPPRLPRPRPRPCQFPRP	0.0126
RRIRMRPPRLPRPRPRPCQNPRP	0.0761
RRIRMRPPRLPRPRPRPCREPRP	-0.126
RRIRMRPPRLPRPRPRPCTKPRP	2.28
RRIRMRPPRLPRPRPRPCTRPRP	-0.0828
RRIRMRPPRLPRPRPRPCVVPRP	-0.0402
RRIRMRPPRLPRPRPRPCWMPRP	0.114

Sequence	shrunken log2 fold change
RRIRMRPPRLPRPRPRPDETPRP	0.103
RRIRMRPPRLPRPRPRPDEVPRP	0.00989
RRIRMRPPRLPRPRPRPDFHPRP	-0.129
RRIRMRPPRLPRPRPRPDGEPRP	0.857
RRIRMRPPRLPRPRPRPDGLPRP	0.143
RRIRMRPPRLPRPRPRPDHVPRP	-0.0107
RRIRMRPPRLPRPRPRPDLKPRP	0.751
RRIRMRPPRLPRPRPRPDLTPRP	0.869
RRIRMRPPRLPRPRPRPDLWPRP	2.21
RRIRMRPPRLPRPRPRPDMLPRP	0.0647
RRIRMRPPRLPRPRPRPDMVPRP	1.9
RRIRMRPPRLPRPRPRPDNDPRP	1.41
RRIRMRPPRLPRPRPRPDPGPRP	0.46
RRIRMRPPRLPRPRPRPDPIPRP	-0.249
RRIRMRPPRLPRPRPRPDRRPRP	-0.0127
RRIRMRPPRLPRPRPRPDRYPRP	-0.0269
RRIRMRPPRLPRPRPRPDVKPRP	0.343
RRIRMRPPRLPRPRPRPDVNPRP	0.0361
RRIRMRPPRLPRPRPRPDWIPRP	-0.017
RRIRMRPPRLPRPRPRPDWKPRP	0.0125
RRIRMRPPRLPRPRPRPEAIPRP	2.54
RRIRMRPPRLPRPRPRPEAVPRP	3.72
RRIRMRPPRLPRPRPRPEDPPRP	1.02
RRIRMRPPRLPRPRPRPEEFPRP	0.0141
RRIRMRPPRLPRPRPRPEEHPRP	2.85

Sequence	shrunken log2 fold change
RRIRMRPPRLPRPRPRPEFNPRP	0.301
RRIRMRPPRLPRPRPRPEFYPRP	-0.056
RRIRMRPPRLPRPRPRPEHHPRP	0.323
RRIRMRPPRLPRPRPRPEHRPRP	0.0887
RRIRMRPPRLPRPRPRPEIPPRP	0.497
RRIRMRPPRLPRPRPRPEKYPRP	0.746
RRIRMRPPRLPRPRPRPELVPRP	0.0445
RRIRMRPPRLPRPRPRPENEPRP	2.96
RRIRMRPPRLPRPRPRPENPPRP	2.79
RRIRMRPPRLPRPRPRPENQPRP	1.86
RRIRMRPPRLPRPRPRPENRPRP	0.247
RRIRMRPPRLPRPRPRPEPNPRP	2.18
RRIRMRPPRLPRPRPRPEQMPRP	2.44
RRIRMRPPRLPRPRPRPERCPRP	0.201
RRIRMRPPRLPRPRPRPERDPRP	2.25
RRIRMRPPRLPRPRPRPETHPRP	2.51
RRIRMRPPRLPRPRPRPFAFPRP	0.0579
RRIRMRPPRLPRPRPRPFCAPRP	0.358
RRIRMRPPRLPRPRPRPFCMPRP	-0.33
RRIRMRPPRLPRPRPRPFCTPRP	-0.0819
RRIRMRPPRLPRPRPRPFENPRP	0.00631
RRIRMRPPRLPRPRPRPFERPRP	0.122
RRIRMRPPRLPRPRPRPFGEPRP	0.0461
RRIRMRPPRLPRPRPRPFIDPRP	-0.438
RRIRMRPPRLPRPRPRPFMMPRP	-0.113

From the supplement of paper PMC9112550, “Optimization of the antimicrobial peptide Bac7 by deep mutational scanning” (BMC Biology, 2022)
